These results are taken from the supplement of paper PMC7877785.

± gives the uncertainty stated by the source.

The nature of the data set: self-splicing fitness, log relative to wild type (ln ratio); higher = more splicing; Tetrahymena group I intron in knt gene, E. coli kanamycin selection, DiMSum; sequences stand for … in CUCUCU…GGAGGGAAAAGUUAUCAGGCAUGCACCUGGUAGCUAGUCUUUAAACCAAUAGAUUGCAUCGGUUUAAAAGGCAAGACCGUCAAAUUGCGGGAAAGGGGUCAACAGCCGUUCAGUACCAAGUCUCAGGGGAAACUUUGAGAUGGCCUUGCAAAGGGUAUGGUAAUAAGCUGACGGACAUGGUCCUAACCACGCAGCCAAGUCCUAAGUCAACAGAUCUUCUGUUGAUAUGGAUGCAGUUCACAGACUAAAUGUCGGUCGGGGAAGAUGUAUUCUUCUCAUAAGAUAUAGUCGGACCUCUCCUUAAUGGGAGCUAGCGGAUGAAGUGAUGCAACACUGGAGCCGCUGGGAACUAAUUUGUAUGCGAAAGUAUAUUGAUUAGUUUUGGAGUACUCGUGGUCG
The gist of the method:
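Fitness was computed with DiMSum as the error-weighted combination of replicate fold changes, kanamycin versus none, each normalised to wild type. The library randomised all eight intron nucleotides of the P1ex region, with the intron placed in the knt kanamycin-resistance gene on pET-22b(+) in E. coli BL21(DE3). Six replicate transformations were grown overnight at 37°C or 30°C on LB agar with or without 25 μg/mL kanamycin, plus 100 μg/mL carbenicillin, 50 μM IPTG and 0.2% rhamnose. Pooled colonies were amplicon-sequenced on an Illumina HiSeq 2500.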

Regarding CGGCAGCAAUAUUACGCCUA, the “self-splicing fitness (ln)” value is -0.162 ± 0.17 (30 °C) and 0.427 ± 0.13 (37 °C).
Regarding UCGCAGCAAUAUUACGGGAU, the “self-splicing fitness (ln)” value is -3.64 ± 0.25 (30 °C) and -2.3 ± 0.18 (37 °C).
Taken in the same sequence, the figures for ACAUAGCAAUAUUACGAAGG were -3.69 ± 0.28 and -1.33 ± 0.18.
Taken in the same sequence, the figures for CUGGAGCAAUAUUACGUCAU were -4.18 ± 0.25 and -3.19 ± 0.4.
The corresponding values for GGCGAGCAAUAUUACGACGA are -3.06 ± 0.32 and -1.32 ± 0.26.
For the sequence GGAGAGCAAUAUUACGCACA, the “self-splicing fitness (ln)” value (37 °C) was -0.604 ± 0.3.
As to CCAAAGCAAUAUUACGGCAU, the “self-splicing fitness (ln)” value by setting is: (30 °C) -3.72 ± 0.15; (37 °C) -2.23 ± 0.15.
The corresponding values for CACUAGCAAUAUUACGAGUU are -1.83 ± 0.085 and -0.633 ± 0.093.
As to GCCCAGCAAUAUUACGUUUG, the “self-splicing fitness (ln)” value reads like this: (30 °C) -3.95 ± 0.14; (37 °C) -1.84 ± 0.14.
The corresponding values for AUCAAGCAAUAUUACGGGGA are -1.43 ± 0.12 and -1.49 ± 0.13.
The corresponding values for CGGAAGCAAUAUUACGAGAA are -2.88 ± 0.48 and -2.03 ± 0.24.
Consider AACAAGCAAUAUUACGUAAA, for which the “self-splicing fitness (ln)” value by setting is: (30 °C) -2.36 ± 0.09; (37 °C) -1.17 ± 0.098.
As for CACAAGCAAUAUUACGCCAU, the “self-splicing fitness (ln)” value is, setting by setting: (30 °C) -4 ± 0.23; (37 °C) -3.48 ± 0.25.
The corresponding values for UAGGAGCAAUAUUACGGUCC are -3.93 ± 0.37 and -0.78 ± 0.26.
Taken in the same sequence, the figures for UUGCAGCAAUAUUACGAGAG were -3.54 ± 0.23 and -1.36 ± 0.21.
The corresponding values for UCAUAGCAAUAUUACGUCUA are -2.05 ± 0.19 and -0.601 ± 0.14.
For the sequence CUCUAGCAAUAUUACGCGCU, the “self-splicing fitness (ln)” value by setting is: (30 °C) -2.55 ± 0.3; (37 °C) -3.61 ± 0.27.
Taken in the same sequence, the figures for GCUCAGCAAUAUUACGAACC were -1.34 ± 0.22 and 0.355 ± 0.23.
The corresponding values for CGCGAGCAAUAUUACGGUCU are -3.82 ± 0.2 and -0.953 ± 0.15.
With UAUGAGCAAUAUUACGGAGC, under “30 °C”, the “self-splicing fitness (ln)” value was -1.38 ± 0.36.
Turning to GGUAAGCAAUAUUACGUGUG, the “self-splicing fitness (ln)” value runs as follows: (30 °C) -2.8 ± 0.16; (37 °C) -2.61 ± 0.16.
Consider CCUUAGCAAUAUUACGAGGG, for which the “self-splicing fitness (ln)” value was -3.54 ± 0.24 (30 °C) and -1.39 ± 0.21 (37 °C).
Taken in the same sequence, the figures for GAACAGCAAUAUUACGUCCC were -1.98 ± 0.16 and -1.25 ± 0.19.
Taken in the same sequence, the figures for GGGUAGCAAUAUUACGGGCU were -0.35 ± 0.081 and 0.282 ± 0.13.
Take AAGCAGCAAUAUUACGAGAA: where the note is “37 °C”, the “self-splicing fitness (ln)” value is -1.29 ± 0.33.
On to GUACAGCAAUAUUACGAGAU, for which the “self-splicing fitness (ln)” value was -3.53 ± 0.16 (30 °C) and -2.03 ± 0.11 (37 °C).
Taken in the same sequence, the figures for CGAAAGCAAUAUUACGCCGA were -1.99 ± 0.24 and -0.323 ± 0.15.
Taken in the same sequence, the figures for AGGUAGCAAUAUUACGGUUG were -3.675 ± 0.026 and -2.4 ± 0.039.
UUUAAGCAAUAUUACGUCGU: the “self-splicing fitness (ln)” value (30 °C) is -2.14 ± 0.21 and the “self-splicing fitness (ln)” value (37 °C) was -2.07 ± 0.32.
For the sequence CGGUAGCAAUAUUACGGCCA, the “self-splicing fitness (ln)” value by setting is: (30 °C) 0.0804 ± 0.18; (37 °C) -0.151 ± 0.24.
As to AAUGAGCAAUAUUACGAUGG, the “self-splicing fitness (ln)” value is -1.98 ± 0.13 (30 °C) and -2.1 ± 0.26 (37 °C).
The corresponding values for AUUCAGCAAUAUUACGCGCU are -2.15 ± 0.12 and -0.796 ± 0.13.
Consider GAAAAGCAAUAUUACGUUCG, for which the “self-splicing fitness (ln)” value (30 °C) is -1.01 ± 0.064 and the “self-splicing fitness (ln)” value (37 °C) was -0.233 ± 0.08.
Taken in the same sequence, the figures for GUACAGCAAUAUUACGAUGA were -1.87 ± 0.097 and -0.889 ± 0.11.
Taken in the same sequence, the figures for AGGCAGCAAUAUUACGCGGU were -3.61 ± 0.19 and -2.98 ± 0.17.
Taken in the same sequence, the figures for CUUAAGCAAUAUUACGGGUG were -0.609 ± 0.049 and 0.489 ± 0.07.
Take UGCGAGCAAUAUUACGUGAG: the “self-splicing fitness (ln)” value runs as follows: (30 °C) -4.57 ± 0.36; (37 °C) -2.63 ± 0.18.
The corresponding values for UCUCAGCAAUAUUACGUGCA are -0.751 ± 0.065 and -0.0852 ± 0.071.
